# Article doi:10.1101/840439 (bioRxiv, 2019)
# B1: BchL (L-protein of dark-operative protochlorophyllide oxidoreductase, DPOR), wild type (enzyme, Rhodobacter sphaeroides, UniProt Q9RFD6 1-297, looked up)
# chain: MSPKDLTIPTGADGEGSVQVHLDEADKITGAKVFAVYGKGGIGKSTTSSNLSAAFSILGKRVLQIGCDPKHDSTFTLTGSLVPTVIDVLKDVDFHPEELRPEDFVFEGFNGVMCVEAGGPPAGTGCGGYVVGQTVKLLKQHHLLDDTDVVIFDVLGDVVCGGFAAPLQHADQAVVVTANDFDSIYAMNRIIAAVQAKSKNYKVRLAGCVANRSRATDEVDRFCKETNFRRLAHMPDLDAIRRSRLKKKTLFEMDEDQDVLAARAEYIRLAESLWRGLDPIDPHSLPDRDIFELLGFD
# Target: the molecule itself
# Test: crystal structure
protein,measurement,value
B1,stoichiometry N,2
